Data on 13 sequences can be found in the DeepSol protein solubility set.

A short description of the data set: soluble on expression in E. coli; label from the status in PepcDB or PDB records.
Consider “MSLGYKCVYMLSEIKEYLKNTVLFAFDFETSPRDKWRNDKSAALDAHKADITGISFSVSEGTAIYVPLKHRSGRNAENQAAIWDYLKLLFESKDVIKVAHNLAFESMFLYARGIVLQKPCYDTIAASQLTLKSKWEFRSLADSGLKTLAPALCKAEMTEFSTVTEGRFFDELNPQDEKTVRYACADSDYTLRLYHVFNQWFDRFLPKHRTIVEEVESPTSVYVGIMKYNGILVDKSAMLKKQAEAAEKIVSIRKEIAGIIGNVEIGANASTSAFKKYLFVDLGLPVMKTTAKHQEAADDETMILLKEWCATNRPELVRLFELVQEYRKWGKLKSTYIDGYLRFIDEDTGRIHPDLMPLGTETGRFASRNPNMQNCPQKDNDPIGVRKFIIAPAGKVLLSLDFSQIELRVGAFYCRDKRMLETYRTGGDIHAQTTSVIYRIPFEEAADKNAPHYKERRTIAKNCNFGVFYGLFPTGLQRTLKFKAGINPTLAECETIIQNLKSGYPGLAKWQDEVKKRAAVSCYSETWLGRRRYLLGIRSSDWGKKSFAERCALNTPIQGTAADILKLACGRIISGLPERLWLKPMLQIHDELVFELPEDKVDEAVVFIKECMETQPFPAFDVPIVAEASVGRNFGEMKEMEEGHHHHHH”, for which the “soluble on expression in E. coli” value is recorded as “soluble”. For “MSLHAAAVGPSVLPDLREQVEQIIAEARRQGASACEVAVSLEQGLSTSVRQGEVETVEFNRDQGFGITLYAGQRKGSASTSATGEAAIRETVAAALAIARHTSEDECAGLADAALMARELPELDLYHPWSLSPEQAVERALACEAAAFAADKRVTKADGTTLNTHQGCRVYGNSHGFIGGYASTRHSLSCVMIAEGEGQMQRDYWYDVNRRGEALASAESIGRRAAERAASRLGARPVQTAEVPVLFAPEIAVGLFGHFLGAISGGSLYRKSSFLEGALGQRLFPEWLSIDERPHLVGALGSASFDSDGLATYAKPFVENGELVSYVLGTYSGRKLGLPSTANAGGVHNLFVSHGDEDQAALIRRMERGLLVTELMGQGVNLVTGDYSRGAAGYWVENGEIQFPVQEVTIAANLRDLFRRIVAVGKDIERRGNLHTGSVLVESMMVAGR”, the “soluble on expression in E. coli” value is “soluble”. Then “MSLHEASIALALIDVAGDVLREHGAARASALTVRVGQWSSVVPEALAAAFPACAEGTPLAGARLSIERVPGVGECPQHGPVELEVWRGLRCPLCGAPTPRLLQGDELELDQLELDQLELENLEGHHHHHH”, with “not soluble”; and “MSLHPETSTELADIRKKAGRRRSIVFVAGNFNIVHPGHLRLLKFAADCGDYLVVGVTADPGYDWMLPAELRLEGVRAIGVVDHAFLLHDAPEDFIAALQPSVVVKGKEHEGADNPEKAVLDGYGGRLVFSSGEVAFSSLDLIKREFREFNPSSIVKPLDYPRRHRFELLELKNVLAGFPKLRVLVLGDLIVDEYIACDPLGLSQEDPTIVVTPVLRELFVGGAGIVAGHAAGMGAQVALLTVGGGDAMADFARERLASYNVDATILTDESRPTTTKQRFRAGNKTLLRVSHLKQHDVDADLQTRMLETIEHRLPSTDLVVFSDFNYGCLPTRLVEAIGQACRARGVPMVADSQSSSQVGDISRFAEMLLIKPTEREARLAMRDFDSGLVVLVEALREKARAKNVILTLAAEGLLVHAETGSAGTVVTDRLPAFNTAPKDAAGAGDSFFVCAALALAIGTDIWRSAYLASIAAACQVGRIGNIPVTARDIIRELDTEGHHHHHH”, with “soluble”; and “MSLHQFQQDNQYFIFNFDRTFEQATEFFQAEFWQKQERVIGSAKGRGITYFLQTEDWFGVNCALRHYYRGGLWGKLNKDRYRFSALETTRSFAEFHLLQRLYEAGLPVPKPIAARIQKGKLGICYQADILTEKIENAQDLTALLQTQTLPKETWMQIGRLIRKLHDLQICHTDLNAHNILLQQTEQGQKCWLLDFDKCGEKSADFWKVQNLNRLKRSFEKEVGRMNIQFTEQNWADLTSAYHQEGHHHHHH”, with “soluble”. On to “MSLIDLYDLRMPQRTGTYVLHEENLAIIETGPSPSVPHLLAGLKALHIDPADIRYIIVTHIHLDHAGGVGVLLEHCPNATVIVHPKGKRHLADPSRLIAGAKAVYGEQFDALFDPIVPVPEERLLVKEDGETLVLSAERTLTFYDTPGHANHHFSIYDSYSGGVFTGDTIGVFYPQLQEAGLAFCLPSTSPNQFNPEAMKQSAERLEKLNPTRIYFGHFGALDQPEEAFRQLRFWLPKFVAAGKEVIARHPEAPAAEQAKAVTKLLHNDITAFLNECSIPASSPVYKVIELDLQVCAMGIIDYWRKQRLEHHHHHH”, for which the “soluble on expression in E. coli” value was “not soluble”.

For “MSLIGLDLDSAPDLIQSVPAPRLRRQVWLRTASGQRLAYATSWWEASHVDEYLQNRSLPIWASLARLRTELYRDVRGIYYGNSEALQLGFGVDGPFWGRHYLFWHHGQPLTLIYEVFSPYLTKYLGPMQLSSRNGKILEHHHHHH”, the “soluble on expression in E. coli” value is recorded as “not soluble”. Then “MSLIIRTDTSPHRAAAKLSPNELTLTGARLVLPDEVYDGTVHIIDGYIDDIAAGRSTVPGAIDLEGGYVTPGLIDLHTDNSEKHALPRAGVVWNHLSAVMAHDALVIAAGITTVFDSLCIGSTTRDHTRQADRARILPVLIDGIREARAHGLLRADHFLHLRCEVTDEEVMSVFTPLVGDPLVKLVSVMDHAPGHRQSPQLDRFREMQIKQYGWSAEDADRRIEAWIDASRTIGPQNRSRIIALARARQLPLASHDDQTPEHVREANDAGVLISEFPTTRAAAEIARSLGICILMGAPNIVRGSSHSGNISARELATTGHLDILASDYVPASLLHGAFQLTRDPIGMSLTKAISTVSSVPASVTGFCDRGMIGIGGRADLCHIVEIADIPVVRGVWRQGRQVFEGHHHHHH”, with “not soluble”; and “MSLIMITAEMVPPDLLIKRLAIYLKENVKTVDPPEWALLAKTASFKERVPDNAEDWWYIRAASLLRKLYVNSIIGIEKTRTIYGGRKRRGTRPEKFVKAPGHVNRLIFQQLEKAGLVQKIKNKGRSLSPKGRSLLDKLALEIFKELAENNTSLKVYLELEHHHHHH”, with “soluble”; and “MSLINGSDPRYNFNVAPYPYCRLCKGHKHMCGLRVCPILERFQEVFPRLDLHGDISTSTPPSIFIGEYNYPSVYGGIMSVVDPERPYARRDMFDLGMPEIIERNANLFRNVKTVSVHNLSEKTVEQIQEAAMALNELRVESRIVGKEKHFDFFDSPVGPMYKSENIKVYGNAKTPRAAQDVIYDIDLNSTEALKILYMNSIDINYITGLLSGGLLGIEKKRKLVPTRWSITAVDDTISRYLKSDALNYESIDKPMVFSYSRFGNHFNIILLPRGTAFEMQEYWEIGSLWGSDGRVSIDFEGHHHHHH”, with “soluble”. Regarding “MSLINRKDALPITRQCRLLDLSRSGFYYTPRPVSAKDLELMRQIDEIHLAFPFYGSRKIRDELWARKHNVGLDKVRRLMRRMGIEALYVKPRLSLSYPEHVKYPYLLRRLEINRANQVWITDITYIPMAKGFCYLVAIMDEGHHHHHH”, the “soluble on expression in E. coli” value was “not soluble”. Then “MSLIRSMTAYARREIKGEWGSATWEMRSVNQRYLETYFRLPEQFRSLEPVVRERIRSRLTRGKVECTLRYEPDVSAQGELILNEKLAKQLVTAANWVKMQSDEGEINPVDILRWPGVMAAQEQDLDAIAAEILAALDGTLDDFIIARETEGQALKVLIEQRLEGVTAEVAKVRAHMPEILQWQRERLIAKLEDAQVQLENNRLEQELVLLAQRIDVAEELDRLEAHAKETYNILKKKEAVGRRLDFMMQEFNRESNTLASKSINAEVTNSAIELKVLIEQMREQIQNIEEGHHHHHH”, with “soluble”. For “MSLKAKYVWVALLALTFFGCDDNTGTIGWDMLPDSDQNINGRYTTYELTTNSDLSGPVFAKTSVGYVGKFTDKEFGEYEASFLAQLNSPDGISFPSVYDPETNPKGVMAGDSIHTAELILYYKSYFGDSINPCRMTVYELDENLTQNYYTDIDPLKYYNPNNLLARKAYTAVDQSLSDSIRNSDDFYPNVRLTSEEITKLGKRIYRLNRDHPEYFKTSEAFINNVFKGIYAKNDYGNGTILYVDQINLNVVIRCHEKDSLGNNLKKKNGADSLYYTTRTFATTKEVIQANKFVNSEKLNEIAKKTDCTYLKSPAGIFTQATLPINKIYEELSHDTINAVKLTFNSYNQPDNGKFSMKAPTYVLLLREKERQSFFEENKLTDNITSYLAVHNAIISNKPTTNQYVFTNLTRLINACVNEKQEAKKKAGDSWNEAAWEAANPDWNKVVLIPVLVQYDSSSNKNMISIQHDLQPGYVKLEGGPDGTKLKLEVTYTNFNGKEGHHHHHH”, the “soluble on expression in E. coli” value was “not soluble”.
